Results published in article PMC3185043, “A SILAC-Based Screen for Methyl-CpG Binding Proteins Identifies RBP-J as a DNA Methylation and Sequence-Specific Binding Protein”.

Columns and labels:
[1] = biological target: RBP-J (GST-tagged, purified) (Homo sapiens, UniProt Q06330 1-500); assay: EMSA; multiple shifts; supershift with one of two antibodies; EMSA: 20 mM HEPES pH 7.9, 1 mM EDTA, 3 mM MgCl2, 10 mM beta-mercaptoethanol, 10% glycerol, 0.1% Triton X-100, 2 ug BSA, 10 ng poly(dI-dC), 30 min on ice; pull-down: 150 mM NaCl, 50 mM Tris pH 8.0, 0.25% NP40, 0.5 mM DTT, poly(dI-dC), 2 h 4 C; details: protein: recombinant; tags: His/GST; label: 32P
[2] = biological target: MBD2b (GST-tagged, purified) (Homo sapiens, UniProt Q9UBB5 150-411); assay: EMSA; multiple shifts; EMSA: 20 mM HEPES pH 7.9, 1 mM EDTA, 3 mM MgCl2, 10 mM beta-mercaptoethanol, 10% glycerol, 0.1% Triton X-100, 2 ug BSA, 10 ng poly(dI-dC), 30 min on ice; pull-down: 150 mM NaCl, 50 mM Tris pH 8.0, 0.25% NP40, 0.5 mM DTT, poly(dI-dC), 2 h 4 C; details: protein: recombinant; tags: GST; label: 32P
MBD2b (GST-tagged, purified), sequence (Q9UBB5 150-411): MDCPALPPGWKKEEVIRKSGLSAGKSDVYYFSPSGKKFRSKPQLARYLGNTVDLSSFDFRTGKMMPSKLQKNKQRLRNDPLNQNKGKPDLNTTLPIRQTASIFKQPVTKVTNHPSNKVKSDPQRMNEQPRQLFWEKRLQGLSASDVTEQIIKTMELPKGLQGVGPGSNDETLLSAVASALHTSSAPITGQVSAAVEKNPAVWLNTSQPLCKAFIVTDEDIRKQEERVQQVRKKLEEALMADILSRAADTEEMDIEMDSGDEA

RBP-J (GST-tagged, purified), sequence (Q06330 whole entry): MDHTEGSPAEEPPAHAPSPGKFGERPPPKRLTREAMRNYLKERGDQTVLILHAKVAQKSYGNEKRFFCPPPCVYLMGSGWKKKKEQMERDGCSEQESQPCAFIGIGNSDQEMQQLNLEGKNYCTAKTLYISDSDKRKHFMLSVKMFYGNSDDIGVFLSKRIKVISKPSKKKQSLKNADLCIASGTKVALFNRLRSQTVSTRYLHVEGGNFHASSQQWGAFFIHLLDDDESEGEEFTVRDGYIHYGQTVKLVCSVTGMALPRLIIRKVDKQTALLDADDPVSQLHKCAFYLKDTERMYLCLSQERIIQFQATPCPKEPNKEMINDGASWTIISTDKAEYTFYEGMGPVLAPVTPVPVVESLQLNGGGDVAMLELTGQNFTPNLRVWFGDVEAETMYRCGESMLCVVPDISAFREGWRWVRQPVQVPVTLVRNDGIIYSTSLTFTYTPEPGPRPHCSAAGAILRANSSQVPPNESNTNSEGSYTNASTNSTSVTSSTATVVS

B1: GSTP1 CpG-island oligo, methylated (EMSA) (dsDNA)
DNA 1: AAGCAGACACTGGCAGGTTTCGGCGGGAGTCCGCGGGACCCTCCAGAAGAGCGGCCGGCGCCGTGACCTAAGGCTAAGGCTCATA
DNA 2: TTTATGAGCCTTAGCCTTAGGTCACGGCGCCGGCCGCTCTTCTGGAGGGTCCCGCGGACTCCCGCCGAAACCTGCCAGTGTCTGC
modifications: 5-methylcytosine at CpG (M.SssI)
B1: binds [1]; binds [2].
